Measurements published in article PMC7694997.

Target: Mycoplasma penetrans methionyl-tRNA synthetase, full-length, M568A variant (Mycoplasma penetrans)
Test: SEC-MALS; size exclusion chromatography with multiangle light scattering of the purified enzyme in solution; conditions not told in the main text

**Q.** With “Mycoplasma penetrans methionyl-tRNA synthetase, full-length, M568A variant (enzyme)” as the substance, how does the stoichiometry N read?
**A.** 2
